Measurements: patent US20260028402A1

Molecular target: HuCD100-His (human) (UniProt Q92854)
Experiment: cell-based or functional assay

B1: Pepinemab (antibody, INN chains, looked up, V domains shown)
VH: QVQLVQSGAEVKKPGSSVKVSCKASGYSFSDYYMHWVRQAPGQGLEWMGQINPTTGGASYNQKFKGKATITVDKSTSTAYMELSSLRSEDTAVYYCARYYYGRHFDVWGQGTTVTVSS
VL: DIVMTQSPDSLAVSLGERATINCKASQSVDYDGDSYMNWYQQKPGQPPKLLIYAASNLESGVPDRFSGSGSGTDFTLTISSLQAEDVAVYYCQQSNEDPYTFGQGTKLEIK
modifications: IgG4
- MDSC proportion (%) at 2.821 nM antibody: 27.1%
- MDSC proportion (%) at 8.463 nM antibody: 16.3%
- MDSC proportion (%) at 25.389 nM antibody: 8.29%
- MDSC proportion (%) at 76.166 nM antibody: 6.92%
- MDSC proportion (%) at 228.498 nM antibody: 6.97%
- MDSC proportion (%) at 685.495 nM antibody: 10.3%
